Biological target: PR-3 receptor (proteinase 3) on TNF-primed human peripheral blood neutrophils (human) (UniProt P24158)
Assay: cell-based or functional assay

Sequence of UniProt P24158 (P24158 28-248): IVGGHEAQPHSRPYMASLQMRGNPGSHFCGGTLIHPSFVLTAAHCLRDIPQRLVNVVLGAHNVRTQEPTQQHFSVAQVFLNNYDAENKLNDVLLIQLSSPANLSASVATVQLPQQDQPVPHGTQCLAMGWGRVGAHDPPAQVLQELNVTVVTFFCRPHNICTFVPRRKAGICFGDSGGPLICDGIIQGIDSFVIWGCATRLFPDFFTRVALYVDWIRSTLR

- % Release of calcein from HUVEC, α-PR3 mAbs added, negative control (0.25 mg/mL α1 antichymotrypsin by the text): 21.9%
- Mean fluorescence, HUVEC assay, α-PR3 mAbs added, negative control: 4420
Substance: α1-antichymotrypsin (Athens Research & Technology, Cat. No. 16-16-012400) (from UniProt P01011 24-423)

— US20160228520A1
